Experimental data from US20230310601A1 (UNIVERSITY OF SOUTHERN CALIFORNIA, published 2023).

Biological target: T1, recombinant human PD-1-Fc (GenScript) (human, UniProt Q15116 25-167, limits assumed)
T1 construct: Bought reagent (GenScript); not shown: Fc part of the bought fusion
Assay: sandwich ELISA; PD-1-Fc coated (200 ng/mL), purified trap protein 0-40 µg/mL, anti-His-tag-HRP detection
Protocol: FIG. 2A-2E depict characterization of trap protein. […] (2D and 2E) Binding ability of trap to PD-1 and TGF-β using sandwich ELISA, wherein purified trap protein was added to PD-1-Fc-coated or TGF-β-coated plates, followed by detection by anti-His-tag antibody conjugated with HRP.
The binding ability of trap protein to PD-1 and TGFβ protein was evaluated by sandwich ELISA, wherein recombinant human PD-1-Fc (GenScript) or […] protein (R&D Systems) (200 ng/mL) was coated on the plates, followed by purified trap protein (0-40 μg/mL) detected by anti-6×HIS TAG® antibody-HRP (1:500 diluted, Abcam).

T1 sequence (Q15116 25-167 limits assumed): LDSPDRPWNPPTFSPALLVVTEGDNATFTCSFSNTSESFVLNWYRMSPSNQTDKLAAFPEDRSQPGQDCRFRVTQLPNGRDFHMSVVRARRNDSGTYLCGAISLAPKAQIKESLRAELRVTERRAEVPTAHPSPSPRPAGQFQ

binding result: binds
B1: trap protein labeled with a His-tag (anti-PD-1 scFv fused to a TGF-β-binding sequence of TGF-βRII, produced in transfected 293T cells) (other, not shown: small tags and cut ends)
chain: DIVLTQSPATLSLSPGERATLSCRASKSVSTSGFNYMHWYQQKPGQAPRLLIFLASNLASGVPARFSGSGSGTDFTLTISSLEPEDFAVYYCQHGRELPLTFGQGTKLEIGGGGSGGGGSGGGGSQVQLVQSGAEVKKPGASVKVSCKASGYTFTNYYMYWVRQAPGQGLEWIGGINPSNGGTNFNEKFKNKATMTVDKSTSTAYMELSSLRSEDTAVYYCTRRDYNYDGGFDYWGQGTLVTVSSGGGGSGGGGSTIPPHVQKSVNNDMIVTDNNGAVKFPQLCKFCDVRFSTCDNQKSCMSNCSITSICEKPQEVCVAVWRKNDENITLETVCHDPKLPYHDFILEDAASPKCIMKEKKKPGETFFMCSCSSDECNDNIIFSEEYNTSNPD
notes: Western blot gives 56 kDa; The text says the scFv derives from antibody 5C4; also called bifunctional trap protein; purified trap protein
